This is an account of results in PMC4932716.

For experiment [1], the target named is native ArtinM (jArtinM) (Artocarpus heterophyllus). Description: SDS-PAGE of undenatured sample; undenatured protein (no thermal dissociation) loaded on 12.5 % SDS-PAGE, 3 μg per lane, Coomassie blue G-250.
Experiment [2] deals with recombinant ArtinM (rArtinM) (Artocarpus heterophyllus). Description: AUC; sedimentation velocity at 50,000 rpm, 20 °C, c(S) fit in SEDFIT; confirmed by sedimentation equilibrium.

As usually defined, the stoichiometry N is a count of units in the complex or per binding partner. As to “native ArtinM (jArtinM) (natural protein)”, the stoichiometry N in experiment [1] was determined as 4.

Regarding “recombinant ArtinM (rArtinM) (natural protein)”, the stoichiometry N in experiment [2] amounted to 3.
